The values below come from patent US20050181450A1, “Novel inositol 1,4,5-trisphosphate (IP3) receptor-binding protein and an IP3 indicator” (priority 2002, published 2005).

Holding throughout (assay type): binding
The target of assay [1] is T1, R441Q mutant of GST-IbIIa (Mus musculus, UniProt P11881, R441Q).
T1 construct: GST-IbIIa (amino acids 224-604 of mouse IP3R1) and its site-directed mutants K508A and R441Q; made in house
Nature of the assay: GST pulldown with R441Q. The conditions noted are these: IRBIT in high salt extract; compared with GST-IbIIa. The text has this:
The cDNAs encoding the full-length and N-terminal region (amino acids 1-104) of IRBIT were subcloned into the Escherichia coli hexahistidine (His) fusion vector pET-23a(+) (Novagen) to generate IRBIT-His and IRBIT(1-104)-His expression vectors, respectively. The same cDNAs were subcloned into the GST fusion vector pGEX-4T-1 (Amersham Pharmacia Biotech) to generate GST-IRBIT and GST-IRBIT(1-104) expression vectors, respectively. The cDNA fragments encoding the amino acids 1-225, 1-343, 341-923, 600-1248, 916-1581 and 1553-1943 of the amino acid sequence (SEQ ID NO: 7) of mouse IP3R1 were inserted into pGEX-KG to generate GST-Ia, GST-Iab, GST-IIab, GST-IIbIIIa, GST-IIIab and GST-IV expression vectors, respectively. The amino acids 1593-2217 of mouse IP3R1 were inserted into pGEX-4T-1 to obtain GST-IV-Va expression vector. These fusion proteins were expressed in Escherichia coli. GST-EL was expressed in Sf9 cells as described above. […]
For the determination of the IRBIT binding region and the critical amino acid residue of IP3R1, the diluted high salt extract was subjected to pulldown assay as described above with 100 pmol of GST, GST-EL, GST-Ia, GST-Iab, GST-IbIIa, GST-IIab, GST-IIbIIIa, GST-IIIab, GST-IV, GST-IV-Va, K508A or R441Q, and analyzed by Western blotting with anti-IRBIT antibody.

Another assay addresses T2, IP3R1 (Mus musculus, UniProt P11881, N1264K/P2675L).
T2 construct: from tissue; host or cells: mouse cerebellum, detergent extract of crude microsome
Nature of the assay: Co-immunoprecipitation from mouse cerebellar crude microsome. The conditions noted are these: detergent extract of mouse cerebellar crude microsome. How it is done:
The detergent extract of mouse cerebellar crude microsome was immunoprecipitated with anti-IRBIT antibody or control antibody. The immunoprecipitates were subjected to SDS-PAGE followed by Western blotting with anti-IP3R1 antibody (upper panel) or anti-IRBIT (lower panel) antibody.
Detergent-solubilized extract from the crude microsome was prepared with 1% Nonidet P-40-containing 50 mM Hepes (pH 7.4), 1 mM MgCl2, and protease inhibitors for 30 minutes at 4° C., and centrifuged at 20,000×g for 30 minutes. The supernatant was diluted 10-fold in an immunoprecipitation buffer (10 mM Hepes (pH 7.4), 150 mM NaCl, 1 mM MgCl2, and 1% Nonidet P-40) and incubated with rabbit anti-IRBIT antibody (3 μg) or control rabbit IgG (3 μg) for 2 hours at 4° C. Protein G Sepharose 4 fast flow (Amersham Pharmacia Biotech) was added for reaction with immune complexes for 2 hours at 4° C. Resins were washed three times with an immunoprecipitation buffer and subjected to Western blotting with anti-IRBIT antibody or mouse anti-IP3R1 antibody KM1112 (47).

Assay [2] concerns the target T3, type II phosphatidylinositol phosphate kinase γ (Homo sapiens, UniProt Q8TBX8).
T3 construct: expressed in transfected cells; host or cells: Cos-7
T3 sequence (Q8TBX8 1-421): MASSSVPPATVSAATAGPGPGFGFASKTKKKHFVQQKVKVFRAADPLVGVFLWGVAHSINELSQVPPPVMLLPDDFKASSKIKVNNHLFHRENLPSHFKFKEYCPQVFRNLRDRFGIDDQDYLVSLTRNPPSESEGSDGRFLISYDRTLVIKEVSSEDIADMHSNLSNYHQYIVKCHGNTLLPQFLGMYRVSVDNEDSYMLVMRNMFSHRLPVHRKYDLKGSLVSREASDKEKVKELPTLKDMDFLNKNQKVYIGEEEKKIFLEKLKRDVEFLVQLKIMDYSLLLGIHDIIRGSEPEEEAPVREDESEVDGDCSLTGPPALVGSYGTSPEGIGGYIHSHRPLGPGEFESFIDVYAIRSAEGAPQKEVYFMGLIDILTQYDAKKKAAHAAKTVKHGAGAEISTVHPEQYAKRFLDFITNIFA
Briefly: Co-immunoprecipitation in Cos-7 cells with Myc-PIPKII γ. The following applies: overexpressing Cos-7 cells. How it is done: (A and B) IRBIT was transfected into Cos-7 cells with Myc-tagged type II phosphatidylinositol phosphate kinase α, β or γ (PIPKII α, β or γ). After two days, cells were lysed in lysis buffer, followed by centrifugation (100,000×g, 30 min). The supernatants were incubated with 3 μg of anti-IRBIT antibody, rabbit IgG, mouse anti-Myc antibody, or mouse IgG for 1 h at 4° C. After adding 5 μl of Protein G beads and another 1-h incubation, the beads were washed five times with lysis buffer and analyzed by Western blotting with anti-IRBIT antibody or HRP conjugated anti-Myc antibody. Immunoprecipitation of Myc-PIPKII α, β or γ with anti-Myc antibody co-precipitated IRBIT (A). In the reciprocal experiments, immunoprecipitation of IRBIT with anti-IRBIT antibody precipitated Myc-PIPKII α, β or γ.
IRBIT was transfected into Cos-7 cells with Myc-tagged type II phosphatidylinositol phosphate kinase α, β or γ (PIPKII α, β or γ). After two days, cells were lysed in lysis buffer, followed by centrifugation (100,000×g, 30 min). The supernatants were incubated with 3 μg of anti-IRBIT antibody, rabbit IgG, mouse anti-Myc antibody, or mouse IgG for 1 h at 4° C. After adding 5 μl of Protein G beads and another 1-h incubation, the beads were washed five times with lysis buffer and analyzed by Western blotting with anti-IRBIT antibody or HRP conjugated anti-Myc antibody.

The subject of assay [3] is sodium bicarbonate cotransporter. Nature of the assay: Immunoprecipitation from mouse cerebellum and mass spectrometry. The conditions noted are these: mouse cerebellar cytosol or microsome detergent extract. How it is done:
Mouse cerebellar cytosol fraction or detergent extract of microsome fraction was immunoprecipitated with 50 μg of anti-IRBIT antibody or rabbit IgG. Immunoprecipitates were separated by 10% SDS-PAGE gel, and stained with Coomassie Brilliant Blue. The bands were excised from the gel and digested with lysyl endopeptidase and analyzed with mass spectrometry. Arrows indicate the bands of sodium bicarbonate cotransporter.
Mouse cerebellar cytosol fraction or detergent extract of microsome fraction was immunoprecipitated with 50 μg of anti-IRBIT antibody or rabbit IgG. Immunoprecipitates were separated by 10% SDS-PAGE gel, and stained with Coomassie Brilliant Blue (FIG. 13). The bands were excised from the gel and digested with lysyl endopeptidase and analyzed with mass spectrometry. Arrows indicate the bands of sodium bicarbonate cotransporter.

T1 sequence (P11881 224-604 R441Q): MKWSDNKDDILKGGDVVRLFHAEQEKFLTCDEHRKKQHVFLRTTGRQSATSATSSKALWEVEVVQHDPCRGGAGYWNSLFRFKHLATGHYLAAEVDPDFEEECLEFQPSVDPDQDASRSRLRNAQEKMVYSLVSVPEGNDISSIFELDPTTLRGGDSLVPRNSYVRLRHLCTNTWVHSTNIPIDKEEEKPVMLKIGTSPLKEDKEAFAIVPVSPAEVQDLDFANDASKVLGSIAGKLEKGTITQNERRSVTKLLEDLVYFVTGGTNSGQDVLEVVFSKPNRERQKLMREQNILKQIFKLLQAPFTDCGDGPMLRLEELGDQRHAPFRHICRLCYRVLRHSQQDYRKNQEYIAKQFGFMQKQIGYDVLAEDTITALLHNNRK
T2 sequence (P11881 whole entry N1264K/P2675L): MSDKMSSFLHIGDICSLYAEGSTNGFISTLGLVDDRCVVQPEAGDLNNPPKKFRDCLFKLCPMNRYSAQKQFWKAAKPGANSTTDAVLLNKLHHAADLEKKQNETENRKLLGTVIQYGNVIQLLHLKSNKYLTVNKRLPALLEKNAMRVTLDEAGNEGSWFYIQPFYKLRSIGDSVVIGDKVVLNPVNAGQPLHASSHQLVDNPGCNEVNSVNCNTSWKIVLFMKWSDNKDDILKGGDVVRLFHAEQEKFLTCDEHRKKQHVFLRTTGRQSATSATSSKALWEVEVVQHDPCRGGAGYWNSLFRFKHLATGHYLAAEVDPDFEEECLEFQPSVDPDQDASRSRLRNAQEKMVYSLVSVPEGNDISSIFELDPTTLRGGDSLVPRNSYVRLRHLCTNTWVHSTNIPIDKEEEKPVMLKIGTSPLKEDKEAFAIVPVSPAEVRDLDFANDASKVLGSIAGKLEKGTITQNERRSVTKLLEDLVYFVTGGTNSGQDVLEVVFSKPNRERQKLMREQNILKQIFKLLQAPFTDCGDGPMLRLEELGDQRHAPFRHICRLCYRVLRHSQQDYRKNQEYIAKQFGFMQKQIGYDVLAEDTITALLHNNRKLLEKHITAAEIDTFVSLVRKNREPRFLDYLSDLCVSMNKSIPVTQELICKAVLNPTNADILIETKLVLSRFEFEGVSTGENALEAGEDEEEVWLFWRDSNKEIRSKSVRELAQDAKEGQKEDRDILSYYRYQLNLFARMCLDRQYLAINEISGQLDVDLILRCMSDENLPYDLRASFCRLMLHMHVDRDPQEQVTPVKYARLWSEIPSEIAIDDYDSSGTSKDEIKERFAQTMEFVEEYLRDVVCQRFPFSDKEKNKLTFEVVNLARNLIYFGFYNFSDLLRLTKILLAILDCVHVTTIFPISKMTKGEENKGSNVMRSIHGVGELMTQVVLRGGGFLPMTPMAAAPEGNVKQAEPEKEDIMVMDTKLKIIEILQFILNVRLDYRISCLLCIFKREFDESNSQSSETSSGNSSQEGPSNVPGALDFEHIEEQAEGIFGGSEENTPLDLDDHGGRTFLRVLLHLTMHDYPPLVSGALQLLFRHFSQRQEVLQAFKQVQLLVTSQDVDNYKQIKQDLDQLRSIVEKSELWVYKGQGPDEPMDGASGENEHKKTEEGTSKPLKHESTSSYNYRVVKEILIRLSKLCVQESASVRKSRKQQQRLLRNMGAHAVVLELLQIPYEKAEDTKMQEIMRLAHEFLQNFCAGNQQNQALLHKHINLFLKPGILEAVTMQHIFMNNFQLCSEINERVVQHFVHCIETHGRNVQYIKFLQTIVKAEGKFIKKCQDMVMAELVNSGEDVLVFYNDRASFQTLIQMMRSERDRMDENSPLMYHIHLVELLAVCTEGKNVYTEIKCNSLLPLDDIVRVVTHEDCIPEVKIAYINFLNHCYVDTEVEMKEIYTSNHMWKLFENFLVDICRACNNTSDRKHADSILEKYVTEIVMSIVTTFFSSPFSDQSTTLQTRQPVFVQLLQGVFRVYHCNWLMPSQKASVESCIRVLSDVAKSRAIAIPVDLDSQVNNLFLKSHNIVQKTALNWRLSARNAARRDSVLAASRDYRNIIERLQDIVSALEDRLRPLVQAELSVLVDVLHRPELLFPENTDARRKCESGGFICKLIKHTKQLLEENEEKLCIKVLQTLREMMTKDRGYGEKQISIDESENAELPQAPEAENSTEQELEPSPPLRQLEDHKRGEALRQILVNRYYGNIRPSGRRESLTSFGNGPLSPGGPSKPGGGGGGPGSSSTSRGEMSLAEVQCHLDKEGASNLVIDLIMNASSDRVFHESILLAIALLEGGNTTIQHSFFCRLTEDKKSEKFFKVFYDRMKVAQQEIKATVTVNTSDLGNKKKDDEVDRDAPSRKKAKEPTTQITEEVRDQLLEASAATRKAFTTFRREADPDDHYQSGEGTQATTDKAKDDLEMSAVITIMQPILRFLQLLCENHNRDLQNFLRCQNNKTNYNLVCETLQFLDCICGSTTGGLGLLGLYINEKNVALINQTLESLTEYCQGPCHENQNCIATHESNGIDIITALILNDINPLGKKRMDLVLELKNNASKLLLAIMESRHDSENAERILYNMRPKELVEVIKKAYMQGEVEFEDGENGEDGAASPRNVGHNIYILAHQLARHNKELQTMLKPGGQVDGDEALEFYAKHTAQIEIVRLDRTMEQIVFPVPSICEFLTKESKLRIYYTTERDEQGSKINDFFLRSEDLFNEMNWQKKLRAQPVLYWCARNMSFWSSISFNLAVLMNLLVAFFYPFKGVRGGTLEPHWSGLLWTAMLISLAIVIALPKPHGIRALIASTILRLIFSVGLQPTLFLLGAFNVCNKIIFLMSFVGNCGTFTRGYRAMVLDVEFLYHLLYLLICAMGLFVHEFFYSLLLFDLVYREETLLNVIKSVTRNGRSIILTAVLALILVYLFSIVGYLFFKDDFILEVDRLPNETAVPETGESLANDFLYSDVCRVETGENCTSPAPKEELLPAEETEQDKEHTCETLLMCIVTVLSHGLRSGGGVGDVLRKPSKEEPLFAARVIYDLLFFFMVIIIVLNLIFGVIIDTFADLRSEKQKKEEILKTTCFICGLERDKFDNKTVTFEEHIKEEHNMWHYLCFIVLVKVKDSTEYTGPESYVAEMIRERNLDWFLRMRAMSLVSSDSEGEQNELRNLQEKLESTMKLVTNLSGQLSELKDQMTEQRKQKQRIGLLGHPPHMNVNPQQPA

B1: IRBIT: novel IP3 receptor-binding protein of 530 amino acids, SEQ ID NO: 1 (protein, listed as Mus musculus)
chain: MSMPDAMPLPGVGEELKQAKEIEDAEKYSFMATVTKAPKKQIQFADDMQEFTKFPTKTGRRSLSRSISQSSTDSYSSAASYTDSSDDEVSPREKQQTNSKGSSNFCVKNIKQAEFGRREIEIAEQDMSALISLRKRAQGEKPLAGAKIVGCTHITAQTAVLIETLCALGAQCRWSACNIYSTQNEVAAALAEAGVAVFAWKGESEDDFWWCIDRCVNMDGWQANMILDDGGDLTHWVYKKYPNVFKKIRGIVEESVTGVHRLYQLSKAGKLCVPAMNVNDSVTKQKFDNLYCCRESILDGLKRTTDVMFGGKQVVVCGYGEVGKGCCAALKALGAIVYITEIDPICALQACMDGFRVVKLNEVIRQVDVVITCTGNKNVVTREHLDRMKNSCIVCNMGHSNTEIDVTSLRTPELTWERVRSQVDHVIWPDGKRVVLLAEGRLLNLSCSTVPTFVLSITATTQALALIELYNAPEGRYKQDVYLLPKKMDEYVASLHLPSFDAHLTELTDDQAKYLGLNKNGPFKPNYYRY
As to B1, in assay [1], the “binding to R441Q” value is listed as “to the same extent”. The “co-immunoprecipitation of IP3R1 with anti-IRBIT antibody” value with IP3R1 is given as “co-immunoprecipitated”. Also, the “interaction with PIPKII γ” value in assay [2] was “interacted”. Besides, in assay [3], the “interaction with sodium bicarbonate cotransporter” value was “interacted”.
